Patent publication US20250332297A1, “DLL3-SPECIFIC BINDING CONSTRUCTS AND THEIR USE IN RADIOTHERAPY” (MOLECULAR PARTNERS AG, priority 2024, published 2025)

B1: MAM279: Two domain (2D) ankyrin repeat protein: serum albumin-specific domain (SEQ ID NO: 7), PT linker, DLL3-specific domain of MAM093 (protein)
chain: DLGKKLLEAARAGQDDEVRELLKAGADVNAKDYFSHTPLHLAARNGHLKIVEVLLKAGADVNAKDFAGKTPLHLAADAGHLEIVEVLLKAGADVNAQDIFGKTPADIAADAGHEDIAEVLQKAAGSPTPTPTTPTPTPTTPTPTPTGSDLGKKLLAAAAQGQDDEVRELLKAGANVNAKDLFGYTPLHLAAWRGHLEIVEVLLKAGADVNAKDAAGETPLHLAAWFGHLEIVEVLLKAGADVNAQDLQGKTPADLAAKEGHEDIAEVLQKAA
modifications: Ankyrin repeat protein (MAM279)
B2: MAM279 conjugate: SEQ ID NO: 15 conjugated to DOTAM-maleimide, labelled with Pb-212 (natural lead in PK studies) (conjugate)
chain: GSDLGKKLLEAARAGQDDEVRELLKAGADVNAKDYFSHTPLHLAARNGHLKIVEVLLKAGADVNAKDFAGKTPLHLAADAGHLEIVEVLLKAGADVNAQDIFGKTPADIAADAGHEDIAEVLQKAAGSPTPTPTTPTPTPTTPTPTPTGSDLGKKLLAAAAQGQDDEVRELLKAGANVNAKDLFGYTPLHLAAWRGHLEIVEVLLKAGADVNAKDAAGETPLHLAAWFGHLEIVEVLLKAGADVNAQDLQGKTPADLAAKEGHEDIAEVLQKAAGSGSC
modifications: DOTAM-maleimide, Pb-212 label; Ankyrin repeat protein with tag (GS-MAM279-tag)

Assays:
Human DLL3-ECD = molecular target: T1, Human DLL3-ECD (Homo sapiens, UniProt Q9NYJ7); assay: SPR, immobilized DARPin, binding of human DLL3-ECD (Example 17); conditions: immobilized biotinylated DARPin, DLL3-ECD as analyte, 1:1 Langmuir, Table 19
T1 construct: the extracellular domain of DLL3 (DLL3-ECD) from human, cynomolgus monkey, mouse and pig
T1 sequence (Q9NYJ7 27-492 limits assumed): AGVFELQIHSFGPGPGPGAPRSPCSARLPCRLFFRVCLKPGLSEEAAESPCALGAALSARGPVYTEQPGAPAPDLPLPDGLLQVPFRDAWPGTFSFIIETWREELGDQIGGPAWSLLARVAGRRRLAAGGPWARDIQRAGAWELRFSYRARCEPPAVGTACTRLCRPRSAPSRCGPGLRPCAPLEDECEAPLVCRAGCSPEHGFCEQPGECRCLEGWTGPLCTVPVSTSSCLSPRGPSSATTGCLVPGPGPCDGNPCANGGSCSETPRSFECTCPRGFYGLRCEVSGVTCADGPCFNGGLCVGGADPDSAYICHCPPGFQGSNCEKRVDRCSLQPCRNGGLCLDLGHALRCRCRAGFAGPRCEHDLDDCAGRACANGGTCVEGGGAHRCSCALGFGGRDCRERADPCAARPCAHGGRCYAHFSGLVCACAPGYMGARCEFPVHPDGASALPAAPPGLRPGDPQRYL
Protocol: (§1) Kinetic binding parameters and binding affinities of two domain (2D) ankyrin repeat protein MAM279 and single domain (1 D) ankyrin repeat protein MAM093 to DLL3 from different species were determined. The DLL3-specific ankyrin repeat domain of MAM093 is identical to the DLL3-specific ankyrin repeat domain comprised in MAM279.
(§2) SPR multi-trace analyses were performed similarly as described in Examples 1 and 11. Here, the binding kinetics of immobilized DARPin proteins to the extracellular domain of DLL3 (DLL3-ECD) from human, cynomolgus monkey, mouse and pig were determined. Various concentrations of recombinant DLL3-ECD starting from 500 nM were applied to immobilized biotinylated 2D DARPin (MAM279; SEQ ID NO: 11) or 1 D DARPin (MAM093; SEQ ID NO: 1) (both with a Glycine-Serine (GS) at the N-terminal end) for on-rate and off-rate measurements.
(§3) Streptavidin SAHC200M (Xantec) SPR chip was conditioned according to the manufacturer's protocol. Biotinylated DARPins were immobilized to a coating density of 27 resonance units (RU) for 1D DARPin and 25 RU for 2D DARPin. All analytes (3-fold dilution ranging from 500-6.17 nM) were injected in succession for 240 s and dissociation was recorded for 10800 s using a constant flow of 100 μl/min.

Cyno DLL3-ECD = assay: SPR, immobilized DARPin, binding of cyno DLL3-ECD (Example 17); parameters: species or system cynomolgus monkey; conditions: immobilized biotinylated DARPin, DLL3-ECD as analyte, 1:1 Langmuir, Table 19
Protocol: as §1, §2, §3

mouse DLL3-ECD = molecular target: T2, mouse DLL3-ECD (Mus musculus, UniProt O88516); assay: SPR, immobilized DARPin, binding of mouse DLL3-ECD (Example 17); conditions: immobilized biotinylated DARPin, DLL3-ECD as analyte, 1:1 Langmuir, Table 20
T2 construct: the extracellular domain of DLL3 (DLL3-ECD) from human, cynomolgus monkey, mouse and pig
T2 sequence (O88516 33-490 limits assumed): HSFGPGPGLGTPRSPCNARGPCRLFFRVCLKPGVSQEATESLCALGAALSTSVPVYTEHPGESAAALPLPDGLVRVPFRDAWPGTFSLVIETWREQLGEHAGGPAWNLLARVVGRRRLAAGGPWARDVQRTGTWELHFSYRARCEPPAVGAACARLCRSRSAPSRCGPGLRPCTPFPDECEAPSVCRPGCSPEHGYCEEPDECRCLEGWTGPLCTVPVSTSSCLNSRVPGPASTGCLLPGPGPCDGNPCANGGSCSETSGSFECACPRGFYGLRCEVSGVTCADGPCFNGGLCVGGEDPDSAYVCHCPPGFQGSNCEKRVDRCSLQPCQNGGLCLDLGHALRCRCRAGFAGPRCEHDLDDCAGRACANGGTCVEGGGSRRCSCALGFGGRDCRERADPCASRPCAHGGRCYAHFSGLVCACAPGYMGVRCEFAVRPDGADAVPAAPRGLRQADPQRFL
Protocol: as §1, §2, §3

[1] = Dose response finding (tolerability) in WT CD1 mice
Description: Animals were under observation daily and 3× per week animals were weighed. […] The data were expressed as % of body weight (BW) change (relative to the initial BW −7 day before the treatment).
Animals were under observation daily and 3× per week animals were weighed. […] The data were expressed as % of body weight (BW) change (relative to the BW seven days before the treatment, i.e. the initial BW at day −7) (average+/−SEM).

Row | Molecule | Kd (Human DLL3-ECD) | Koff Human DLL3-ECD (Human DLL3-ECD) | Kon Human DLL3-ECD (Human DLL3-ECD) | Kd (Cyno DLL3-ECD) | Koff Cyno DLL3-ECD (Cyno DLL3-ECD) | Kon Cyno DLL3-ECD (Cyno DLL3-ECD) | Kd (mouse DLL3-ECD) | Koff mouse DLL3-ECD (mouse DLL3-ECD) | Kon mouse DLL3-ECD (mouse DLL3-ECD) | appearance of animals ([1]; Pb-212 labelled conjugate injected once at 10 μCi, 20 μCi and 30 μCi i.v., WT CD1 mice) | body weight (BW) change ([1]; Pb-212 labelled conjugate injected once at 10 μCi, 20 μCi and 30 μCi, WT CD1 mice, recovered within up to about 10 days) | toxicity ([1]; Pb-212 labelled conjugate, injected dose of 60 μCi, WT CD1 mice) | hematology profile (white blood cells, lymphocytes, monocytes, neutrophils) ([1]; within up to 28 days after injection of 10 μCi, 20 μCi and 30 μCi doses (data not shown))
1 | B1 | 0.127 nM | 1.31e-05 s⁻¹ | 102000 M⁻¹ s⁻¹ | 8.88 nM | 0.000939 s⁻¹ | 106000 M⁻¹ s⁻¹ | 83.9 nM | 0.00282 s⁻¹ | 33700 M⁻¹ s⁻¹ | – | – | – | –
2 | B2 | – | – | – | – | – | – | – | – | – | animals appeared healthy and active | Minimal weight loss | Toxicity was observed | complete recovery
